# Test results taken from patent US20110251266, “APTAMER FOR NGF AND USE THEREOF” (Shionogi & Co., Ltd., published 2011).
# Positions count from the first letter of the chain named.
# B1: SEQ43 aptamer (ssRNA)
# RNA: GGGAGAACUUCGACCAGAAGCUUGAAAAAACCCCAAUAUGAGAAUCAUAUAUGUGCGCAUACAUGGAUCCUCA
# modifications: 2'-F all pyrimidines
# B2: SEQ53 aptamer (ssRNA)
# RNA: GGGAGAACUUCGACCAGAAGUUUGAAAGGAACCCAAAAACACAAAAUGUCUAUGUGCGCAUACAUGGAUCCUCA
# modifications: 2'-F all pyrimidines
# B3: SEQ46 aptamer (ssRNA)
# RNA: GGGAGAACUUCGACCAGAAGUUUGAAACAAACCCAAAGUUACGCACAAAAUAUGUGCGCAUACAUGGAUCCUCA
# modifications: 2'-F all pyrimidines
# B4: SEQ50 aptamer (ssRNA)
# RNA: GGGAGAACUUCGACCAGAAGUGAAAAAACCUCCCAAUACAAACACAAAAAUAUGUGCGCAUACAUGGAUCCUCA
# modifications: 2'-F all pyrimidines
# B5: SEQ48 aptamer (ssRNA)
# RNA: GGGAGAACUUCGACCAGAAGUUUGAAAAGAACCCGAAAAACGCAUAAUAAUAUGUGCGCAUACAUGGAUCCUCA
# modifications: 2'-F all pyrimidines
# B6: SEQ55 aptamer (ssRNA)
# RNA: GGGAGAACUUCGACCAGAAGUUUGAAAGAAACCCAAAAAUGAAUGCAACUAUGUGCGCAUACAUGGACCUCA
# modifications: 2'-F all pyrimidines
# B7: SEQ59 aptamer (ssRNA)
# RNA: GGGAGAACUUCGACCAGAAGUCGAAACGUUUGAAAAAAACCCAAGGAGGAUAUGUGCGCAUACAUGGAUCCUCA
# modifications: 2'-F all pyrimidines
# B8: SEQ63 aptamer (ssRNA)
# RNA: GGGAGAACUUCGACCAGAAGAUUUGAAAGAAACCCAAACUAAGCACAAAAUAUGUGCGCAUACAUGGAUCCUCA
# modifications: 2'-F all pyrimidines
# B9: SEQ66 aptamer (ssRNA)
# RNA: B5 RNA with G29A, G35A, A38G, A39C, C41A, U45C, U48C, A50U
# modifications: 2'-F all pyrimidines
# B10: SEQ45 aptamer (ssRNA)
# RNA: GGGAGAACUUCGACCAGAAGAGAAUGAAACUCCCAAAUCAAGGACAAUGAUAUGUGCGCAUACAUGGAUCCUCA
# modifications: 2'-F all pyrimidines
# B11: SEQ47 aptamer (ssRNA)
# RNA: GGGAGAACUUCGACCAGAAGAAGUUUGAAAAGAACCCAAAAUGAGCAAAAUAUGUGCGCAUACAUGGAUCCUCA
# modifications: 2'-F all pyrimidines
# B12: SEQ56 aptamer (ssRNA)
# RNA: B4 RNA with A26G, C29A, U37C, C43U, A44G, A47C, A50C
# modifications: 2'-F all pyrimidines
# B13: SEQ49 aptamer (ssRNA)
# RNA: B4 RNA with A26G, C29A, U37G, A40G, A41G, A42U, C43A, A46G, A50G
# modifications: 2'-F pyrimidines
# B14: SEQ64 aptamer (ssRNA)
# RNA: GGGAGAACUUCGACCAGAAGUUUGAAAGAAACCCAAAACAUUAGCACACAUAUGUGCGCAUACAUGGAUCCUCA
# modifications: 2'-F pyrimidines
# B15: SEQ39 aptamer (ssRNA)
# RNA: GGGAGAACUUCGACCAGAAGUGUGAAAAGAACCCAAAUAAAACAACAAUGUAUGUGCGCAUACAUGGAUCCUCA
# modifications: 2'-F pyrimidines
# B16: SEQ57 aptamer (ssRNA)
# RNA: GGGAGAACUUCGACCAGAAGUUUGAAAAAAACCCAAACACCGAAGCACAAAUAUGUGCGCAUACAUGGAUCCUCA
# modifications: 2'-F pyrimidines
# B17: SEQ37 aptamer (ssRNA)
# RNA: B3 RNA with C28G, U39G, A41G, C42A, G43A, C44A, A45C, C46A, A48C
# modifications: 2'-F pyrimidines
# B18: SEQ42 aptamer (ssRNA)
# RNA: B14 RNA with G28A, C39G, U41G, U42C, C47G, C49G
# modifications: 2'-F pyrimidines
# B19: SEQ52 aptamer (ssRNA)
# RNA: GGGAGAACUUCGACCAGAAGUUUGAAAGAAACCCAAAUAUACAAAACACUAUGUGCGCAUACAUGGAUCCUCA
# modifications: 2'-F pyrimidines
# B20: SEQ83 aptamer (ssRNA)
# RNA: GGGAGAACUUCGACCAGAAGUUGAAGCUUGAAAAAAACCCAGGAUUAAACAGACAGUAUGUGCGCAUACAUGGAUCCUC
# modifications: 2'-F pyrimidines
# B21: SEQ38 aptamer (ssRNA)
# RNA: GGGAGAACUUCGACCAGAAGAGAAUGAAACUCCACAAAGUACAUAAAACAUAUGUGCGCAUACAUGGAUCCUCA
# modifications: 2'-F pyrimidines
# B22: SEQ54 aptamer (ssRNA)
# RNA: GGGAGAACUUCGACCAGAAGUCGAAAGUGAAAGAAACUCCAACGAAAGCAUAUGUGCGCAUACAUGGAUCCUCA
# modifications: 2'-F pyrimidines
# B23: SEQ51 aptamer (ssRNA)
# RNA: GGGAGAACUUCGACCAGAAGUUUGAAAGAAACCCAAAAAAACAACAUAUGAACUAUGUGCGCAUACAUGGAUCCUCA
# modifications: 2'-F pyrimidines
# B24: SEQ6 aptamer (ssRNA)
# RNA: GGGAAGCCUGUGGAGCUGCAGGAUGAAAAAAACCCAAAAUUAAAUAAAAAAUAGACGGUGCAUUGUCACCAACAACUGG
# modifications: 2'-F pyrimidines
# B25: SEQ5 aptamer (ssRNA)
# RNA: GGGAAGCCUGUGGAGCUGCUUAAACAAGCAAGUGAAAAAAACCACAGCAAAUGUAAAAAGCAUUGUCACCAACAACUGG
# modifications: 2'-F pyrimidines
# B26: SEQ12 aptamer (ssRNA)
# RNA: GGGAAGCCUGUGGAGCUGCGAAACAGUGAAACAAACCACAGACUGAGAAAGCAGUAACAGCAUUGUCACCAACAACUGG
# modifications: 2'-F pyrimidines
# B27: SEQ30 aptamer (ssRNA)
# RNA: GGGAUAAAAAUAGAGUUUGAUAAACACCUGUAUUAAAACCC
# modifications: 2'-F pyrimidines
# B28: SEQ30(6) (ssRNA)
# RNA: B27 RNA
# modifications: 2'-F pyrimidines and some purines, 2'-OMe at most purines including g1-g3 as printed in p174, 5' and 3' idT
# B29: SEQ35(6) (ssRNA)
# RNA: GGGAAGCCUGUGGAGCUGCAGGAUGAAAAAAACCCAAA
# modifications: 2'-F pyrimidines and a23, 2'-OMe at g1 g2 a4 a5 g6 g10 g12 g13 a14 g15 g18 a20 g21 g22 a29-a32 a36-a38, 5' and 3' idT
# B30: SEQ35(5) (ssRNA)
# RNA: B29 RNA
# modifications: 2'-F pyrimidines, 2'-OMe at g1 g2 a4 a5 g6 g10 g12 g13 a14 g15 g18 a20 g21 g22 a29-a32 a36-a38, 5' and 3' idT
# B31: SEQ32 aptamer (ssRNA)
# RNA: UGUGGAGCUGCUUAAACAAGCAAGUGAAAAAAACCACA
# modifications: 2'-F pyrimidines
# B32: SEQ35(1) (ssRNA)
# RNA: B29 RNA
# modifications: 2'-F pyrimidines, 2'-OMe at a4 a5 g6 g10 g12 g13 a14 g15 g18 a20 g21 g22, 5' and 3' idT
# B33: SEQ30(5) (ssRNA)
# RNA: B27 RNA
# modifications: 2'-F pyrimidines and some purines, 2'-OMe at many purines as printed in p174, 5' and 3' idT
# Biological target: T1, beta-NGF (nerve growth factor) (Homo sapiens, UniProt P01138 P01138:122-241)
# Test: SPR; blocks NGF-TrkA and NGF-P75
# Conditions: tags: R&D Systems; chain copies: 2
# Protocol: As directed in BIAcore Company's protocol, Protein A (21181, PIERCE) was immobilized on a CM5 sensor chip. About 1100 RU of human Trk A-Fc fused with the Fc portion of IgG (175-TK, R&D systems) was immobilized thereon. As the analyte, a mixture of NGF (0.1 μM) and each aptamer (0.33 μM) was injected after being allowed to stand for 30 minutes. […] When NGF binds stronger to a receptor than an aptamer, the aptamer may be removed and NGF may bind to the receptor. […] Using the binding amount of NGF and NGF receptor without an aptamer as 100, the binding amount of NGF and NGF receptor added with an aptamer was determined as a correction value. Here, the binding amount is the RU value at the peak top of the sensorgram of BIAcore (RU value immediately after completion of NGF injection). […] A similar experiment was performed for another receptor P75 (p75-Fc; R&D systems).
# T1 sequence (P01138 122-241, one chain of several): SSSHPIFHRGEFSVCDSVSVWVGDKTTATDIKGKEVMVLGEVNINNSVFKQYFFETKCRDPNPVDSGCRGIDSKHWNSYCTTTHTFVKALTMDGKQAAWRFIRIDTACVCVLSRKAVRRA
row,Binder,activity [% inhibition]
1,B1,≥ 60
2,B2,≥ 60
3,B3,≥ 60
4,B4,≥ 60
5,B5,≥ 60
6,B6,≥ 60
7,B7,≥ 60
8,B8,≥ 60
9,B9,≥ 60
10,B10,≥ 60
11,B11,≥ 60

# Biological target: T1, beta-NGF (nerve growth factor)
# Test: cell_activity; neurite outgrowth, Neuroscreen-1 cells
# Conditions: tags: R&D Systems; chain copies: 2
# Protocol: (§1) The neurite outgrowth inhibitory activity of aptamer was evaluated by using Neuroscreen-1 cell, which is a subclone of PC-12 cells. 2500 Cells per well were cultured for one day in an RPMI-1640 medium containing 2.5% horse serum and 1.25% fetal bovine serum in a 96 well flat-bottom plate coated with collagen type IV. A mixed solution of NGF (final concentration 15 ng/ml or 1.1 nM) prereacted in a serum-free RPMI-1640 medium at room temperature or 37° C. for 30 min to 1 hr and an aptamer (final concentration 500-3 nM) was added. Two or three days later, the cytoplasm and nuclei were stained using Cellomics Neurite Outgrowth Kits (manufactured by Thermo Scientific), and neurite length per cell was measured by Cellomics ArrayScan VTI (manufactured by Thermo Scientific). With the neurite length per cell obtained by culturing the cell for 2 days with the addition of NGF alone as inhibitory activity 0%, and that of the cell obtained by NGF free culture as inhibitory activity 100%, the inhibitory activity of the aptamer was calculated from the neurite length per cell obtained by culturing with the addition of NGF and the aptamer in mixture. […] When the inhibitory activity was 0% or below, ‘0%’ is indicated. When it was not less than 100%, ‘100%’ is indicated. The 50% inhibitory concentration was determined from the concentrations at two, above and below points sandwiching the 50% inhibitory activity.
row,Binder,IC50 [nM]
1,B1,< 10
2,B2,< 10
3,B3,25.4
4,B4,25.4
5,B5,46.4
6,B6,49.9
7,B7,71.5
8,B8,< 10
9,B9,< 10
10,B10,20.2
11,B11,14.6
12,B12,18.8

# Biological target: T1, beta-NGF (nerve growth factor)
# Test: cell_activity; Neuroscreen-1 neurite outgrowth
# Conditions: tags: R&D Systems human NGF; chain copies: 2
# Protocol: as §1
row,Binder,IC50 [nM]
1,B13,4.6
2,B14,4.8
3,B15,6.3
4,B16,6.4
5,B17,6.6
6,B18,6.6
7,B19,6.7
8,B20,7.1
9,B21,7.3
10,B22,7.6
11,B23,11.9
12,B24,17.7
13,B25,21
14,B26,43.4
15,B27,57.6
16,B28,58.9
17,B29,73.5
18,B30,79.8
19,B31,84.7
20,B32,94.7
21,B33,< 100
